How the values were obtained:
[1] = biological target: T1, ND2.2-GST (Homo sapiens, UniProt P03891); assay: dot blot of biotinylated Src peptides on ND2.2-GST; type: binding; conditions: biotinylated peptide
T1 construct: amino acids 189-238 (ND2.2-GST); made in house; host or cells: bacteria
Protocol: Src, Fyn, and ND2 recombinant proteins were prepared. The cDNAs encoding the SH3 and SH2 domains of mouse n-Src and Fyn were PCR subcloned, ligated in frame into pGEX4T-1 (Amersham Pharmacia Biotech, Baie d'Urfé, Québec), and sequenced. These plasmids, as well as plasmids encoding the unique domains of Src and Fyn in pGEX2T'6, were transformed into BL21 bacteria, and GST fusion proteins were purified by glutathione affinity chromatography. To create the ND2.1, ND2.2, and ND2.3 GST fusion proteins, cDNAs encoding amino acids 239-321 (ND2.1-GST; SEQ ID NO:7), amino acids 189-238 (ND2.2-GST; SEQ ID NO:11), and amino acids 1-188 (ND2.3-GST; SEQ ID NO:13) of human ND2 were PCR subcloned and ligated into pGEX4T-1 (the nucleotide sequence encoding ND2 is SEQ ID NO:8 and the amino acid sequence is SEQ ID NO:9; the nucleotide sequences encoding ND2.1; ND2.2 and ND2.3 are SEQ ID NOS:6, 10 and 12, respectively). Using PCR-based single nucleotide mutagenesis, all cDNAs encoding ND2 fusion proteins were corrected for differences between mitochondrial and nuclear codons to prevent premature translation termination and protein truncation. […]
Src40-58 and scrambled Src peptides were biotinylated by incubating with Sulfo-NHS-Biotin (Pierce Chemical Co., Rockford, Ill.) for 30 minutes at room temperature (SEQ ID NO:4, Src protein). […] Bound probe was then detected on film using an ECL kit.

[2] = biological target: T2, interaction between the ND2.1-GST and Src unique domain proteins (Homo sapiens, UniProt P03891, A265T); assay: ND2.1-GST probed with biotinylated Src unique domain in the presence of peptide or antibody; type: binding; conditions: in vitro, ND2.1-GST incubated with peptide
T2 construct: made in house; host or cells: BL21 bacteria
Description: (§1) Detailed protocols for in vitro binding assays, pull down assays, immunoblotting, and co-immunoprecipitation techniques can be found in Pelkey et al. (Neuron 34:127-138 2002).
ND2 acts as an adapter protein for Src. […] Furthermore, the effect of Src40-58 on the interaction between Src and ND2 was examined (FIGS. 4D and 4E). […] Thus, it was concluded that amino acids 40-58 of Src interact with the region spanned by ND2.1, thereby mediating the binding between the Src unique domain and ND2.

[3] = tested on: AMPA receptor; assay: mEPSC whole cell recordings in cultured hippocampal neurons, AMPA receptor component; type: cell-based, rat; conditions: under the recording conditions used
Protocol: Fetal rat hippocampal neurons were prepared, cultured, and used for electrophysiological recordings 12-17 days after plating. Methods for whole cell recordings are described in Pelkey et al. (Neuron 34:127-138 2002).
In contrast, in control experiments administering EPQ(pY)EEIPIA (SEQ ID NO:5) increased the NMDAR component of mEPSCs by 172±28% and application of Src40-58 decreased the NMDAR component to 56±4% (FIGS. 5D-F). […] Composite traces are shown in black, the NMDAR component in dark grey, and the AMPAR component in light grey. Scale bars are 50 ms/10 pA. […] NMDA component data were calculated as Q20′/Q2′, and AMPA component data were calculated as A20′/A2′. […] An * indicates a significant difference, Student's t-test, p<0.05. Taking our results together, it is concluded that Src-dependent regulation of the activity of NMDARs depends on expression of ND2 through its anchoring of Src to the NMDAR complex.

[4] = biological target: T3, ND2 association with NMDAR complexes (Rattus norvegicus, UniProt P11662); assay: co-immunoprecipitation of ND2 with NMDARs from PSD proteins; type: binding
T3 construct: from tissue; host or cells: rat brain post-synaptic density fraction
Protocol: as §1
(§2) Post-synaptic density proteins (Kennedy et al. Proceedings of the National Academy of Science USA 80:7357-7361 1983) were prepared from rat brain as described in detail (Pelkey et al. Neuron 34:127-138 2002). Cellular fractionation of rat brain tissue into nuclear, heavy mitochondrial, light mitochondrial, microsomal, and cytosolic fractions was performed by differential centrifugation of tissue homogenate in 0.25 M sucrose/10 mM HEPES-NaOH, 1 mM EDTA, pH 7.4 with 2 μg each of aprotinin, pepstatin A, and leupeptin (Sigma, St. Louis, Mo.) at 4° C. Nuclei were pelleted by centrifugation at 1 000 g for 10 minutes, the supernatant was removed and spun at 3 000 g for 10 minutes to obtain a heavy mitochondrial pellet. The supernatant was removed and spun at 16 000 g for 15 minutes to obtain a light mitochondrial pellet. The supernatant was removed and spun at 100 000 g for 1 hour to obtain a microsomal pellet and the cytosolic fraction. All pellets were then resuspended in RIPA buffer (50 mM Tris pH 7.6, 150 mM NaCl, 1 mM EDTA, 1% NP-40, 2.5 mg/ml NaDOC, 1 mM Na3VO4 1 mM PMSF, and 2 μg/ml each of protease inhibitors). The light mitochondrial fraction was used in subsequent experiments. […]

[5] = biological target: T4, association of Src with the NMDAR complexes (Rattus norvegicus, UniProt P11662); assay: co-immunoprecipitation of Src with NMDARs from PSD proteins; type: binding
T4 construct: from tissue; host or cells: rat brain post-synaptic density fraction
Protocol: as §1, §2

T2 sequence (P03891 239-318 A265T): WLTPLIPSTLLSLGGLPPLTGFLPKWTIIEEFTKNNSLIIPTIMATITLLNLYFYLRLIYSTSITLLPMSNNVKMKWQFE
T4 sequence (P11662 whole entry, other chains not shown): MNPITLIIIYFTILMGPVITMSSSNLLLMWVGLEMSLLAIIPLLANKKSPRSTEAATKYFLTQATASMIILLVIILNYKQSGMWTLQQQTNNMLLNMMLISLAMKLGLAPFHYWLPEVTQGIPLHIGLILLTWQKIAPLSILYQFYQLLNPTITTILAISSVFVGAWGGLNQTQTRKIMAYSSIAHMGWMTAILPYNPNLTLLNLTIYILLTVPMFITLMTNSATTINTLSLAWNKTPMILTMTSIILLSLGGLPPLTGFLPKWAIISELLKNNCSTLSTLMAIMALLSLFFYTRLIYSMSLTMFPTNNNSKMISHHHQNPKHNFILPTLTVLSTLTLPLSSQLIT
T3 sequence (P11662 whole entry, other chains not shown): as above
T1 sequence (P03891 189-238): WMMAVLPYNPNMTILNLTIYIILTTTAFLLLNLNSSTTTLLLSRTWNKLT

Src40-58: peptide comprising amino acid residues 40-58 of SEQ ID NO:4 (Src) (PASADGHRGPSAAFAPAAA; listed as Homo sapiens)
binding to ND2.2-GST [1]: Neither Src40-58 nor scrambled Src40-58 bound
effect on ND2.1-GST pulling down the Src unique domain protein [2]: prevented
AMPA receptor component of the mEPSCs [3]: neither of these reagents affected
co-immunoprecipitation of ND2 with NMDARs [4]: not affected
co-immunoprecipitation of Src with NMDARs [5]: suppressed

From patent publication US8003609B2, “Method for ameliorating pain by modification of NMDA receptors through inhibition of Src” (The Hospital for Sick Children, priority 2004, dated 2011)
